According to patent publication US20060286112A1 (published 2006):

B1: 2.25 (antibody, V domains shown)
VH: QVQLQQSGPGLVKPSQTLSLTCAISGDSVSSNSAAWNWIRQSPSRGLEWLGRTYYMSKWYNDYAVSVKSRITINPDTSKNQFSLQLNSVTPEDTAVYYCARARYCGGDCYDFDYWGQGTLVTVSS
VL: DIQMTHSPSSLSASVGDRVTITCRASQSISISLNWYQQKPGNAPKLLIYAASSLQSGIPSRFSGSGSGTDFTLTISSLQPEDFATYYCQQSFSTPWTFGQGTKVEIK
B2: 7.57 (antibody, V domains shown)
VH: QVQLVQSGAEVKKPGASVRVSCKASGYTFTGYFMHWVRQAPGQGLEWMGWINPNSGGTNYAQKFQGRVTMTRDTSISTASMELSRLRSDDTAVYYCARAPLRYFDWLDYWGQGTLVTVSS
VL: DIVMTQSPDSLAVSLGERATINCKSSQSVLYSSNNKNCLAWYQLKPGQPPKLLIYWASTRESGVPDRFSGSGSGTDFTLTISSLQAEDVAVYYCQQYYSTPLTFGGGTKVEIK
B3: 4.13 (antibody, V domains shown)
VH: QVQLVQSGAEVKKPGASVKVSCKASGYTFTSYYMNWVRQAPGQGLEWMGIISPSGGSTTYAQKFQGRVTMTRDTSTSTVYMELSSLRSEDTAVYYCARTGYSGYEGYYYGLDVWGQGTTVTVSS
VL: DVVMTQSPLSQPVTLGQPASISCRSSQSLVYSDGNTYLHWFQQRPGQSPRRLIYKVSNWDSGVPDRFSGSGSGTDFTLKISRVEAEDVGVYDCMQGTHWPSTFGGGTKVEIK
B4: 7.3 (antibody, V domains shown)
VH: QVQLVESGGGVVQPGRSLRLSCAASGITFSSYGMHWVRQAPGKGLEWVAVMWYEGSNKYYADSVKGRFTISRDNSKNTLYLQMNSLRAEDTAVYYCARGVLRYFDWLSYWGQGTLVTVSS
VL: EIVMTQSPATLSVSPGERATLSCRASQSVSSHLAWYQQKPGQAPRLLIYGASTRATGIPARFSGSGSGTEFTLTISSLQSEDFAVYYCQQYNNWPLTFGGGTKVEIK
B5: 7.73 (antibody, V domains shown)
VH: QVQLQESGPGLVKPSETLSLTCTVSGGSISSHYWSWIRQPAGKGLEWIGRVYSSGSTNSNPSLKSRVTMSVDTAKNQFSLKLSSVTAADTAVYYCAREGYDFWSDYYNYYYGMDVWGQGTTVTVS
VL: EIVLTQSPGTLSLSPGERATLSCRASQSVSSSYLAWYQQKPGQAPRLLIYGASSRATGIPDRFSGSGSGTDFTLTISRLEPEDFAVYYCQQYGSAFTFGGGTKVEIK
B6: 2.1 (antibody, V domains shown)
VH: QVQLQESGPGLVKPSQTLSLTCTVSGGSISSGGYYWSWIRQHPGKGLEWIGYIYNSGSTYYNPSLKSRGTISADTSKNQFSLKLSSVTAADTAVYYCARGSSSYYWYFDLWGRGTLVTVSS
VL: DIQMTQSPSSMSASVGDRVTITCRASQRISSNLNWYQQKPGKAPKFLIYGASSLQSGVPSRFSGSGSGTDFTLTISSLRPEDFATYYCQQSYSTPYTFGPGTKVDIK
B7: 2.10 (antibody, V domains shown)
VH: EVQLVESGGGLVKPGGSLRLSCAASGFTLSSYSMNWVRQAPGKGLEWVSSISSSSSYIHYADSVKGRFTISRDNAKNSLYLQMNSLRAEDTAVYYCARAPVVFDYWGQGTLVTVSS
VL: EIVLTQSPGTLSLSPGERATLSCRASQSVSSSYLAWYQQKPGQAPRLLISGASSRATGIPDRFSGSGSGTDFTLTISRLEPEDFAVYYCQQYGGSLTWTFGQGTKVEIK
B8: 7.40 (antibody, V domains shown)
VH: QVQLQESGPGLVKPSETLSLTCTVSGGSISSHYWSWIRQPAGKGLEWIGRIYTSGSTNYNPSLKSRVTMSVDTSKNQFSLKLRSVTAADTAVYYCAREGYSSSSGHYDYYYGMDVWGQGTTVTVS
VL: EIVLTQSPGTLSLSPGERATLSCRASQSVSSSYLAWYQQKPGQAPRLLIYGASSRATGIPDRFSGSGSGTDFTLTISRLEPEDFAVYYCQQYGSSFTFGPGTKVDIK
B9: 6.3 (antibody, V domains shown)
VH: QVLLQESGPGLVKPSQTLSLTCTVSGGSISSGGYYWSWIRQHPGKGLEWIGYINYSGSAYYNPSLKSRVTISVDTSKNQFSLKLSSVTAADTAVYYCARDHWLLRGFDYWGQGTLVTVSS
VL: DIVMTQTPLSLSVTPGQPASISCKSSQSLLHSDGKTYLYWYLQKPGQPPQLLIYEVSNRFSGVPDRFSGSGSGTDFTLKISRVEAEDVGVYYCMQSIQLPRTFGQGTKVEIK

target: T1, human VLA-1 α1 subunit (CD49a), full-length, on transfected CHO cells (human, UniProt P56199 29-1179); experiment: cell-based or functional assay

Binder | IC50, adhesion of CHO-VLA-1 cells to collagen IV [nM]
B1 | 74.9
B2 | 3.25
B3 | < 0.01
B4 | 0.94
B5 | 0.43
B6 | 21.4
B7 | 2.37
B8 | 4.72
B9 | 0.68

target: T1, human VLA-1 α1 subunit (CD49a), …; experiment: cell-based or functional assay; remark: another data set of the same source

Binder | relative inhibition at an optimal concentration, CHO-VLA-1 adhesion to collagen IV [%]
B3 | > 80
B5 | > 80
